This note sets out measurements from the RNAGym collection of RNA variant scans (doi:10.7554/elife.80360).

To fix the notation:
B1: CPEB3 Ribozyme (parent)
chain: GGGGGCCACAGCAGAAGCGUUCACGUCGCGGCCCCUGUCAGAUUCUGGUGAAUCUGCGAAUUCUGCUGU

This series covers variants of B1. Briefly: self-cleavage, relative activity (ratio to wild type); higher = more cleavage; co-transcriptional.
On to U44C A59C, for which the self-cleavage turned out to be 0.577.

With U44C A59G, the self-cleavage was found to be 0.958.

On to U44C A59U, for which the self-cleavage is 0.657.

For U44G A51G, the self-cleavage turned out to be 0.671.

With U44G A51U, the self-cleavage turned out to be 0.941.

Consider U44G A51C, for which the self-cleavage came to 0.966.

Take C45U C66A: the self-cleavage came to 0.843.

As to C45U C66G, the self-cleavage was determined as 0.87.

As to U46A C63U, the self-cleavage was determined as 1.02.

As to C45G G50C, the self-cleavage was determined as 1.01.

For C45G G50A, the self-cleavage came to 1.01.

For the variant U44C U55A, the self-cleavage was 0.524.

Take U44C U55C: the self-cleavage was found to be 0.473.

Turning to C45G U46C, the self-cleavage stood at 0.999.

In the case of C45G U46A, the self-cleavage stood at 0.631.

Take C45G U46G: the self-cleavage worked out at 0.966.

For the variant C45U, the self-cleavage was determined as 0.996.

As for C45A, the self-cleavage is 0.984.

In the case of C45G, the self-cleavage is 0.986.

C45G U69C: the self-cleavage worked out at 1.05.

Regarding C45G U69A, the self-cleavage turned out to be 1.01.

Regarding U44G, the self-cleavage worked out at 0.985.

C45A C63A: the self-cleavage turned out to be 0.817.

U44G A52U: the self-cleavage is 0.975.

As to U44G A52G, the self-cleavage turned out to be 0.943.

Take U46A G68A: the self-cleavage amounted to 1.02.

Turning to U46A G68C, the self-cleavage was 0.97.

Turning to U46C A60U, the self-cleavage is 0.472.

On to U46C A60C, for which the self-cleavage was 0.339.

For the variant U44C U61C, the self-cleavage worked out at 0.317.

In the case of U46C G56U, the self-cleavage was 0.837.

On to U46C C66A, for which the self-cleavage stood at 0.763.

Turning to U46C C66G, the self-cleavage was found to be 0.762.

In the case of U44G U49G, the self-cleavage is 0.927.

Consider U44C U62C, for which the self-cleavage is 0.572.

Turning to U44C U62G, the self-cleavage is 0.664.

Turning to U44G A60U, the self-cleavage amounted to 0.382.

With U44G A60C, the self-cleavage turned out to be 0.368.

Consider U44G A60G, for which the self-cleavage amounted to 0.819.

As to C45A G56U, the self-cleavage was 0.695.

In the case of C45A G56C, the self-cleavage amounted to 0.482.

Consider U44G C54G, for which the self-cleavage was determined as 0.417.

Regarding U44G C54U, the self-cleavage was 0.87.

Regarding C45G U67A, the self-cleavage was 0.962.

In the case of C45G U67C, the self-cleavage worked out at 0.917.

With U46A G50C, the self-cleavage is 0.951.

Turning to U46A G50A, the self-cleavage stood at 0.974.

For U46C C57A, the self-cleavage was determined as 0.373.

Consider C45A G50A, for which the self-cleavage came to 1.02.

C45A U69C: the self-cleavage is 1.07.

On to C45A U69G, for which the self-cleavage is 1.06.

In the case of C45A U69A, the self-cleavage came out at 1.

Consider U44C G50C, for which the self-cleavage amounted to 0.948.

Regarding U44C G50U, the self-cleavage was found to be 0.93.

Consider C45G U55G, for which the self-cleavage was determined as 0.648.

With C45G U55A, the self-cleavage was found to be 0.797.

With C45G U55C, the self-cleavage is 0.487.

For U46C G48A, the self-cleavage came out at 1.03.

Regarding U46C G48C, the self-cleavage amounted to 1.02.

Take U46C G48U: the self-cleavage came to 1.02.

On to C45G A60U, for which the self-cleavage is 0.407.

As to C45G A60G, the self-cleavage came out at 0.897.

Take C45G A60C: the self-cleavage came out at 0.493.

Regarding U44C U53A, the self-cleavage was 0.895.

With U44C U53C, the self-cleavage is 0.647.

Turning to U44C U53G, the self-cleavage was 0.747.

In the case of U44C C45U, the self-cleavage was 0.955.

As for U44C C45A, the self-cleavage stood at 0.998.

U46A C66U: the self-cleavage came out at 0.972.

As for U46A C66A, the self-cleavage came out at 0.924.

In the case of U46A C66G, the self-cleavage turned out to be 0.961.

Consider U46C G68A, for which the self-cleavage is 1.

Regarding U46C G68C, the self-cleavage stood at 0.985.

In the case of U46C G47C, the self-cleavage was 1.02.

For the variant U46C G47A, the self-cleavage was determined as 0.682.

As to C45U C57A, the self-cleavage came out at 0.32.

In the case of C45U C57G, the self-cleavage came out at 0.319.

For the variant C45A U55A, the self-cleavage is 0.534.

For C45A U55G, the self-cleavage was 0.475.

Consider C45G C57G, for which the self-cleavage turned out to be 0.328.

As to C45G C57A, the self-cleavage is 0.318.

Consider C45G C57U, for which the self-cleavage was 0.366.

Regarding C45U U62A, the self-cleavage came out at 0.908.

Take U46A U55A: the self-cleavage came out at 0.964.

With U46A U55C, the self-cleavage was 0.871.

Regarding U46A A60G, the self-cleavage was 0.91.

In the case of U46A A60C, the self-cleavage stood at 0.346.

Turning to C45G G65A, the self-cleavage is 0.87.

As to C45G G65U, the self-cleavage worked out at 0.832.

Consider C45U G56U, for which the self-cleavage was determined as 0.897.

In the case of C45U G56C, the self-cleavage was found to be 0.694.

In the case of U46C U67A, the self-cleavage turned out to be 0.938.

Consider U46C U67G, for which the self-cleavage came to 0.977.

As for U46C U67C, the self-cleavage is 0.962.

Take C45U U53C: the self-cleavage was determined as 0.834.

On to U44G U53A, for which the self-cleavage was determined as 0.755.

In the case of U44G U53C, the self-cleavage stood at 0.749.

As to U44C A60G, the self-cleavage stood at 0.669.

Turning to U44C A60U, the self-cleavage is 0.441.

Consider U44G G56U, for which the self-cleavage was 0.666.

For the variant U46A U69C, the self-cleavage is 1.07.

In the case of U46A U69A, the self-cleavage is 0.991.

As to U44G U55C, the self-cleavage turned out to be 0.512.

U46A U61G: the self-cleavage came out at 0.902.

In the case of U46A U61C, the self-cleavage was 0.86.

As for C45A U62G, the self-cleavage amounted to 0.832.

For C45A U62C, the self-cleavage was 0.85.

Consider C45A U62A, for which the self-cleavage was determined as 0.846.

Consider C45A C66G, for which the self-cleavage was found to be 0.788.

Regarding U44C C66G, the self-cleavage worked out at 0.464.

For the variant U44C C66A, the self-cleavage is 0.502.

Turning to U44C C66U, the self-cleavage was 0.928.

For the variant U46C U69A, the self-cleavage came out at 0.997.

As to U46A C54A, the self-cleavage was determined as 0.933.

On to U46A C54G, for which the self-cleavage came to 0.971.

On to U46C A52C, for which the self-cleavage came out at 0.943.

As for U46C A52G, the self-cleavage came to 1.

In the case of U44C G47U, the self-cleavage worked out at 1.01.

U44C G47A: the self-cleavage stood at 0.979.

U46C U62A: the self-cleavage was 0.943.

As for U46C U62C, the self-cleavage is 0.895.

Consider U46C U62G, for which the self-cleavage was 0.916.

For the variant C45U U64G, the self-cleavage came out at 0.854.

Take U46A G65U: the self-cleavage stood at 0.926.

With U46A C57U, the self-cleavage worked out at 0.309.

In the case of U46A C57G, the self-cleavage was found to be 0.31.

Consider U44G U62C, for which the self-cleavage turned out to be 0.842.

For the variant C45U U69A, the self-cleavage was determined as 1.05.

Consider C45U U69C, for which the self-cleavage amounted to 1.08.

As for C45G U61C, the self-cleavage was found to be 0.757.

Regarding C45G U61G, the self-cleavage came out at 0.731.

Turning to C45G U61A, the self-cleavage worked out at 0.922.

For the variant C45G G56A, the self-cleavage turned out to be 0.881.

Consider C45U G68U, for which the self-cleavage worked out at 1.01.

For the variant C45U G68C, the self-cleavage was found to be 1.

On to C45A C54U, for which the self-cleavage worked out at 0.926.

C45A C54G: the self-cleavage turned out to be 0.562.

Consider U44C C63G, for which the self-cleavage turned out to be 0.417.

Consider U44C C63U, for which the self-cleavage was determined as 0.819.

As for C45A G68C, the self-cleavage turned out to be 0.965.

As to C45A G68U, the self-cleavage is 0.998.

For the variant C45A G68A, the self-cleavage turned out to be 1.02.

Turning to U46C U53G, the self-cleavage is 0.872.

Take C45A G65C: the self-cleavage worked out at 0.533.

Regarding C45A G65U, the self-cleavage is 0.729.

As for C45G G47A, the self-cleavage was found to be 1.03.

In the case of C45A A52U, the self-cleavage was determined as 0.919.

In the case of U44C G48A, the self-cleavage came to 1.02.

For U44C G48U, the self-cleavage stood at 1.02.

As to U44C G48C, the self-cleavage stood at 1.

In the case of U44C G56C, the self-cleavage stood at 0.351.

For U44C G56U, the self-cleavage was 0.388.

Turning to U46A A51C, the self-cleavage is 0.99.

Consider U46A A51U, for which the self-cleavage turned out to be 1.01.

In the case of U44G C66U, the self-cleavage was determined as 0.986.

Turning to U44G C66G, the self-cleavage was 0.707.

Regarding U44C G58C, the self-cleavage was 0.917.

U44C G58A: the self-cleavage came to 0.981.

As for U44C G58U, the self-cleavage was 0.963.

In the case of C45G C63U, the self-cleavage was 0.964.

Consider U44G U67C, for which the self-cleavage is 0.977.

As for U44G U67G, the self-cleavage was found to be 1.01.

As to U44G U67A, the self-cleavage came out at 0.883.

With C45G U62C, the self-cleavage is 0.798.

In the case of C45G U62G, the self-cleavage came to 0.81.

For U44G C63U, the self-cleavage came to 0.918.

Consider U44G C63A, for which the self-cleavage is 0.835.
